Reference: PMC8776769, “Structure and mechanism of the RNA dependent RNase Cas13a from Rhodobacter capsulatus”

Target: T1, RcCas13a (Rhodobacter capsulatus, UniProt D5AUW0 1-1285)
T1 sequence: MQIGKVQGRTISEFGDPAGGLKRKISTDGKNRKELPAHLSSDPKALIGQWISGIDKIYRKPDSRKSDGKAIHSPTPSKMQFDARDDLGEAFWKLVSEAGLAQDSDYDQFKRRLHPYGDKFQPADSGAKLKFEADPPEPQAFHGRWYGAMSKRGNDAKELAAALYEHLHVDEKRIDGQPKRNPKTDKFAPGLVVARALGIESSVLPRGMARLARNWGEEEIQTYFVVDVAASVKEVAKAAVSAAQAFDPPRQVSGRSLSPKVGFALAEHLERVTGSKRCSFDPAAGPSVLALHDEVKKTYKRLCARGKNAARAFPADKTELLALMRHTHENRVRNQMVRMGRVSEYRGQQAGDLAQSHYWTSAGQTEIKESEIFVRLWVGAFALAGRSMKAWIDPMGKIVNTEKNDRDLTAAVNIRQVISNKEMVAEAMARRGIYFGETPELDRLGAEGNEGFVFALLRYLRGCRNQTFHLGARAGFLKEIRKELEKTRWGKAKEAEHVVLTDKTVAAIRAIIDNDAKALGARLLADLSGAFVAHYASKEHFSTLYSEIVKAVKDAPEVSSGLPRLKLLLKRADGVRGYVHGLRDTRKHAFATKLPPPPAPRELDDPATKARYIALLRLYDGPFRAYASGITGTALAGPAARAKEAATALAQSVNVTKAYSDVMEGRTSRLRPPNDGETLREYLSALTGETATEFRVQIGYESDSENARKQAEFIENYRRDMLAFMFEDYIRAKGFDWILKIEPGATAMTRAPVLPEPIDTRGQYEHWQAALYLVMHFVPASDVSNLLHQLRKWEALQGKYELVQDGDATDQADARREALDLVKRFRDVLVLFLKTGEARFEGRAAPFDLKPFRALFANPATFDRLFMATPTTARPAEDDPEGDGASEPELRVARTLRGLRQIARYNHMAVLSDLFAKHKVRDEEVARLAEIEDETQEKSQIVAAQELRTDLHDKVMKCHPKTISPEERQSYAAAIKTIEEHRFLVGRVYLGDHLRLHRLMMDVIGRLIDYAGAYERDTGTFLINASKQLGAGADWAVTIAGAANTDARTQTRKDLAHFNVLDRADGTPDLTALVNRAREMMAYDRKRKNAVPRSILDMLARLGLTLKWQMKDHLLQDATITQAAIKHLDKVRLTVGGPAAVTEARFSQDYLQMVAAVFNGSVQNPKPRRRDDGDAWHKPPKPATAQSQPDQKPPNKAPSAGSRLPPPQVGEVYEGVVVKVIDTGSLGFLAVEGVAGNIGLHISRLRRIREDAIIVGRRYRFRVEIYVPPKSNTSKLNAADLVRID
Test: X-ray crystal structure (2.1 A); binary complex, no target RNA; Complex co-purified by Ni affinity and SEC: 50 mM Hepes pH 8.0, 500 mM NaCl, 10% glycerol, 1 mM DTT, 4-8 C; crystallization conditions not in material
Settings: protein: recombinant; tags: C-terminal His6, not removed for the crRNA complex; hairpin

B1: crRNA for crystallization (structured_RNA)
RNA: GCCUCACAUCACCGCCAAGACGACGGCGGACUGAACCUUCAUUACCUCUGUUUG
Q: Does B1 bind?
A: binds
